# Experimental data from IntAct's records for PubMed 31515488.
# B1: Calcium-binding and coiled-coil domain-containing protein 2 (Homo sapiens), Q13137 (parent)
# chain: MEETIKDPPTSAVLLDHCHFSQVIFNSVEKFYIPGGDVTCHYTFTQHFIPRRKDWIGIFRVGWKTTREYYTFMWVTLPIDLNNKSAKQQEVQFKAYYLPKDDEYYQFCYVDEDGVVRGASIPFQFRPENEEDILVVTTQGEVEEIEQHNKELCKENQELKDSCISLQKQNSDMQAELQKKQEELETLQSINKKLELKVKEQKDYWETELLQLKEQNQKMSSENEKMGIRVDQLQAQLSTQEKEMEKLVQGDQDKTEQLEQLKKENDHLFLSLTEQRKDQKKLEQTVEQMKQNETTAMKKQQELMDENFDLSKRLSENEIICNALQRQKERLEGENDLLKRENSRLLSYMGLDFNSLPYQVPTSDEGGARQNPGLAYGNPYSGIQESSSPSPLSIKKCPICKADDICDHTLEQQQMQPLCFNCPICDKIFPATEKQIFEDHVFCHSL
# partner: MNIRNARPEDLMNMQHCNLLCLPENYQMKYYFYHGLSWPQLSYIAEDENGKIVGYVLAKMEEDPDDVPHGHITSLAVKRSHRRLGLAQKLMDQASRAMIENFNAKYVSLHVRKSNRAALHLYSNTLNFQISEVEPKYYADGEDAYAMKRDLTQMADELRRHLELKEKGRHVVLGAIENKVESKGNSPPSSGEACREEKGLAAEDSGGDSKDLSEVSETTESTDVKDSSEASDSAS
# B2: DNA topoisomerase 3-beta-1 (Homo sapiens), O95985 (parent)
# chain: MKTVLMVAEKPSLAQSIAKILSRGSLSSHKGLNGACSVHEYTGTFAGQPVRFKMTSVCGHVMTLDFLGKYNKWDKVDPAELFSQAPTEKKEANPKLNMVKFLQVEGRGCDYIVLWLDCDKEGENICFEVLDAVLPVMNKAHGGEKTVFRARFSSITDTDICNAMACLGEPDHNEALSVDARQELDLRIGCAFTRFQTKYFQGKYGDLDSSLISFGPCQTPTLGFCVERHDKIQSFKPETYWVLQAKVNTDKDRSLLLDWDRVRVFDREIAQMFLNMTKLEKEAQVEATSRKEKAKQRPLALNTVEMLRVASSSLGMGPQHAMQTAERLYTQGYISYPRTETTHYPENFDLKGSLRQQANHPYWADTVKRLLAEGINRPRKGHDAGDHPPITPMKSATEAELGGDAWRLYEYITRHFIATVSHDCKYLQSTISFRIGPELFTCSGKTVLSPGFTEVMPWQSVPLEESLPTCQRGDAFPVGEVKMLEKQTNPPDYLTEAELITLMEKHGIGTDASIPVHINNICQRNYVTVESGRRLKPTNLGIVLVHGYYKIDAELVLPTIRSAVEKQLNLIAQGKADYRQVLGHTLDVFKRKFHYFVDSIAGMDELMEVSFSPLAATGKPLSRCGKCHRFMKYIQAKPSRLHCSHCDETYTLPQNGTIKLYKELRCPLDDFELVLWSSGSRGKSYPLCPYCYNHPPFRDMKKGMGCNECTHPSCQHSLSMLGIGQCVECESGVLVLDPTSGPKWKVACNKCNVVAHCFENAHRVRVSADTCSVCEAALLDVDFNKAKSPLPGDETQHMGCVFCDPVFQELVELKHAASCHPMHRGGPGRRQGRGRGRARRPPGKPNPRRPKDKMSALAAYFV
# partner: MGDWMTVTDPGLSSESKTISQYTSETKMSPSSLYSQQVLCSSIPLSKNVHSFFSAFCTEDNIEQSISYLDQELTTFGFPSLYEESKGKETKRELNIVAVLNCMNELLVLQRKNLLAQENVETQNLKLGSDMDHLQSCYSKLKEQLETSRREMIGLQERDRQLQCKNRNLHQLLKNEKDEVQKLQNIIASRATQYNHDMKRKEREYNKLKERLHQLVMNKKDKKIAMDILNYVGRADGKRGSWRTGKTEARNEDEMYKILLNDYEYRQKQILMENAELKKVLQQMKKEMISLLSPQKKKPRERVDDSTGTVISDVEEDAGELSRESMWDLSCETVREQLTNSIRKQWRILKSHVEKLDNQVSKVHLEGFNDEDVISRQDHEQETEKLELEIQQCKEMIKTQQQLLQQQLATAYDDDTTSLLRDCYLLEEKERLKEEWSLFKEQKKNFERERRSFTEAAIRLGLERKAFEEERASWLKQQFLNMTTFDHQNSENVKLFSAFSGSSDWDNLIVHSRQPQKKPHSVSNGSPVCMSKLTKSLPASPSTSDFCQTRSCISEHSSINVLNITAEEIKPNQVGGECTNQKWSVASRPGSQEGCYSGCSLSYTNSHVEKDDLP
# B3: Protein BANP (Homo sapiens), Q8N9N5 (parent)
# chain: MMSEHDLADVVQIAVEDLSPDHPVVLENHVVTDEDEPALKRQRLEINCQDPSIKTICLRLDSIEAKLQALEATCKSLEEKLDLVTNKQHSPIQVPMVAGSPLGATQTCNKVRCVVPQTTVILNNDRQNAIVAKMEDPLSNRAPDSLENVISNAVPGRRQNTIVVKVPGQEDSHHEDGESGSEASDSVSSCGQAGSQSIGSNVTLITLNSEEDYPNGTWLGDENNPEMRVRCAIIPSDMLHISTNCRTAEKMALTLLDYLFHREVQAVSNLSGQGKHGKKQLDPLTIYGIRCHLFYKFGITESDWYRIKQSIDSKCRTAWRRKQRGQSLAVKSFSRRTPNSSSYCPSEPMMSTPPPASELPQPQPQPQALHYALANAQQVQIHQIGEDGQVQVGHLHIAQVPQGEQVQITQDSEGNLQIHHVGQDGQLLEATRIPCLLAPSVFKASSGQVLQGAQLIAVASSDPAAAGVDGSPLQGSDIQVQYVQLAPVSDHTAGAQTAEALQPTLQPEMQLEHGAIQIQ
# B4: U6 snRNA-associated Sm-like protein LSm7 (Homo sapiens), Q9UK45 (parent)
# chain: MADKEKKKKESILDLSKYIDKTIRVKFQGGREASGILKGFDPLLNLVLDGTIEYMRDPDDQYKLTEDTRQLGLVVCRGTSVVLICPQDGMEAIPNPFIQQQDA
# partner: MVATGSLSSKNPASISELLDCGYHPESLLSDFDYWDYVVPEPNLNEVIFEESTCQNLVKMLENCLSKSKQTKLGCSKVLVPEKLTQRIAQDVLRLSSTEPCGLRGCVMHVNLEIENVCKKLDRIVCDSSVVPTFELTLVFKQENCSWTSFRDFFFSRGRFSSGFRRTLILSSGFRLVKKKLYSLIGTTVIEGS
# B5: E3 ubiquitin-protein ligase TRIM32 (Homo sapiens), Q13049 (parent)
# chain: MAAAAASHLNLDALREVLECPICMESFTEEQLRPKLLHCGHTICRQCLEKLLASSINGVRCPFCSKITRITSLTQLTDNLTVLKIIDTAGLSEAVGLLMCRSCGRRLPRQFCRSCGLVLCEPCREADHQPPGHCTLPVKEAAEERRRDFGEKLTRLRELMGELQRRKAALEGVSKDLQARYKAVLQEYGHEERRVQDELARSRKFFTGSLAEVEKSNSQVVEEQSYLLNIAEVQAVSRCDYFLAKIKQADVALLEETADEEEPELTASLPRELTLQDVELLKVGHVGPLQIGQAVKKPRTVNVEDSWAMEATASAASTSVTFREMDMSPEEVVASPRASPAKQRGPEAASNIQQCLFLKKMGAKGSTPGMFNLPVSLYVTSQGEVLVADRGNYRIQVFTRKGFLKEIRRSPSGIDSFVLSFLGADLPNLTPLSVAMNCQGLIGVTDSYDNSLKVYTLDGHCVACHRSQLSKPWGITALPSGQFVVTDVEGGKLWCFTVDRGSGVVKYSCLCSAVRPKFVTCDAEGTVYFTQGLGLNLENRQNEHHLEGGFSIGSVGPDGQLGRQISHFFSENEDFRCIAGMCVDARGDLIVADSSRKEILHFPKGGGYSVLIREGLTCPVGIALTPKGQLLVLDCWDHCIKIYSYHLRRYSTP
# partner: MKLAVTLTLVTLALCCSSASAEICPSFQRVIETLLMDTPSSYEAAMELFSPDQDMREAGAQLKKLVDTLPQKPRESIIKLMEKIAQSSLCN
# B6: Ubiquitin thioesterase OTUB2 (Homo sapiens), Q96DC9 (parent)
# chain: MSETSFNLISEKCDILSILRDHPENRIYRRKIEELSKRFTAIRKTKGDGNCFYRALGYSYLESLLGKSREIFKFKERVLQTPNDLLAAGFEEHKFRNFFNAFYSVVELVEKDGSVSSLLKVFNDQSASDHIVQFLRLLTSAFIRNRADFFRHFIDEEMDIKDFCTHEVEPMATECDHIQITALSQALSIALQVEYVDEMDTALNHHVFPEAATPSVYLLYKTSHYNILYAADKH
# partner: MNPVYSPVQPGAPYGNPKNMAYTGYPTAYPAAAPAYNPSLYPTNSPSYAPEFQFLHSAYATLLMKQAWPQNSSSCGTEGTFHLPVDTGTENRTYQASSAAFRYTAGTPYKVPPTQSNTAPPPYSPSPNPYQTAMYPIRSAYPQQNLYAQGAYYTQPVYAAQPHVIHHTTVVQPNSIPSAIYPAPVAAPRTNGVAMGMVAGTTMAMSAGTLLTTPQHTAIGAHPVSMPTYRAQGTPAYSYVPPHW
# B7: KH domain-containing, RNA-binding, signal transduction-associated protein 2 (Homo sapiens), Q5VWX1 (parent)
# chain: MEEEKYLPELMAEKDSLDPSFVHASRLLAEEIEKFQGSDGKKEDEEKKYLDVISNKNIKLSERVLIPVKQYPKFNFVGKLLGPRGNSLKRLQEETGAKMSILGKGSMRDKAKEEELRKSGEAKYAHLSDELHVLIEVFAPPGEAYSRMSHALEEIKKFLVPDYNDEIRQEQLRELSYLNGSEDSGRGRGIRGRGIRIAPTAPSRGRGGAIPPPPPPGRGVLTPRGSTVTRGALPVPPVARGVPTPRARGAPTVPGYRAPPPPAHEAYEEYGYDDGYGGEYDDQTYETYDNSYATQTQSVPEYYDYGHGVSEDAYDSYAPEEWATTRSSLKAPPQRSARGGYREHPYGRY
# partner: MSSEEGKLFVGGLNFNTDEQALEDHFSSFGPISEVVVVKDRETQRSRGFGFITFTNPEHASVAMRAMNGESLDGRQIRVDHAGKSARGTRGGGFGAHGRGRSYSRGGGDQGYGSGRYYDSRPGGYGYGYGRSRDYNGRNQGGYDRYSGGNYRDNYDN
# B8: Golgin-45 (Homo sapiens), Q9H2G9 (parent)
# chain: MTTKNLETKVTVTSSPIRGAGDGMETEEPPKSVEVTSGVQSRKHHSLQSPWKKAVPSESPGVLQLGKMLTEKAMEVKAVRILVPKAAITHDIPNKNTKVKSLGHHKGEFLGQSEGVIEPNKELSEVKNVLEKLKNSERRLLQDKEGLSNQLRVQTEVNRELKKLLVASVGDDLQYHFERLAREKNQLILENEALGRNTAQLSEQLERMSIQCDVWRSKFLASRVMADELTNSRAALQRQNRDAHGAIQDLLSEREQFRQEMIATQKLLEELLVSLQWGREQTYSPSVQPHSTAELALTNHKLAKAVNSHLLGNVGINNQKKIPSTVEFCSTPAEKMAETVLRILDPVTCKESSPDNPFFESSPTTLLATKKNIGRFHPYTRYENITFNCCNHCRGELIAL
# partner: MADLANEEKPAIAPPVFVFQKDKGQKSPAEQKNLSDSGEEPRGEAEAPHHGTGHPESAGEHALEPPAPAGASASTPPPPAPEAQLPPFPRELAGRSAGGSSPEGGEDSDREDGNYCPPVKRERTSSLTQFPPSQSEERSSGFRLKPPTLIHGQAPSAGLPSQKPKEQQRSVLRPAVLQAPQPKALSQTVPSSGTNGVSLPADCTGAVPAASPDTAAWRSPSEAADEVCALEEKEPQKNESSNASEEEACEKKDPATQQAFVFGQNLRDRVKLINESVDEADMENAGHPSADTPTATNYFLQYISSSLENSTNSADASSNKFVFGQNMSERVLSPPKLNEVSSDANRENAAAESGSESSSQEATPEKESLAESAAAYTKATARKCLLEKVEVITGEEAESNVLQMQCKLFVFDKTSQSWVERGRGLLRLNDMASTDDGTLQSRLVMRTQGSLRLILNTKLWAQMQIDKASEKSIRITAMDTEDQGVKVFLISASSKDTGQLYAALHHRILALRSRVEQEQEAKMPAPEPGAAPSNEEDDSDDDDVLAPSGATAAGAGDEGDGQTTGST
# Variants of: B1
# Conditions: with naa10_human NAA10, P41227
row,effect of a mutation on the interaction,Variant
1,with no effect,T273A
2,with no effect,E222K
3,with no effect,P389A

# Variants of: B2
# Conditions: with adip_human SSX2IP
row,effect of a mutation on the interaction,Variant
1,disrupting interaction strength,R267W

# Variants of: B3
# Conditions: with zn471_human ZNF471, Q9BX82
# Chain of zn471_human ZNF471, Q9BX82 (Q9BX82 whole entry): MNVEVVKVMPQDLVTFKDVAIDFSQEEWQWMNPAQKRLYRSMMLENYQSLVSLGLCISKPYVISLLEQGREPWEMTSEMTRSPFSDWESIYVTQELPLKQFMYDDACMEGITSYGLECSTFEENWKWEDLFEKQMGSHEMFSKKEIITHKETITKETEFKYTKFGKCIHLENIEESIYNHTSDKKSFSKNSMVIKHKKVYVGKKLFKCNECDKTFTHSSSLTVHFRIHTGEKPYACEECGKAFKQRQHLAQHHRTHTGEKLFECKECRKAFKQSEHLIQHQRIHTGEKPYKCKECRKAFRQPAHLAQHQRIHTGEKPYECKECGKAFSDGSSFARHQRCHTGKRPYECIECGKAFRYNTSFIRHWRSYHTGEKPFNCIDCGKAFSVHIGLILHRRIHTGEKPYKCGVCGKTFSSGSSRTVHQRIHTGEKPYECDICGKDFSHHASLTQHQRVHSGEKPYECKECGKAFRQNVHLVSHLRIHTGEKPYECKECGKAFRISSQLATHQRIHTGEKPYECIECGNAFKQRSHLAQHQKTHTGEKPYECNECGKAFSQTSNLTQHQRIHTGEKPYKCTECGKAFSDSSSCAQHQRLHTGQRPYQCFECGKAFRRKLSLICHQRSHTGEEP
row,effect of a mutation on the interaction,Variant
1,with no effect,P348S

# Variants of: B4
# Conditions: with ddt4l_human DDIT4L
row,effect of a mutation on the interaction,Variant
1,with no effect,G78A

# Variants of: B5
# Conditions: with uter_human SCGB1A1, P11684
row,effect of a mutation on the interaction,Variant
1,disrupting interaction strength,E547A

# Variants of: B6
# Conditions: with FAM168A
row,effect of a mutation on the interaction,Variant
1,disrupting interaction strength,R146P
2,with no effect,V78I

# Variants of: B7
# Conditions: with rbm3_human RBM3, P98179
row,effect of a mutation on the interaction,Variant
1,with no effect,P333L

# Variants of: B8
# Conditions: with ranb3_human RANBP3, Q9H6Z4
row,effect of a mutation on the interaction,Variant
1,with no effect,Q40R
